Assay results taken from the supplement of paper PMC12042874.
± gives the uncertainty stated by the source.

Experiment: amyloid nucleation score (Sup35N fusion, yeast selection) (log enrichment); library NNK1; higher = more nucleation; inactive = no reads after selection
Summary of the method: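 Peptides of 20 random codons fused to Sup35N were expressed in psi-negative yeast, induced 24 hours with 100 μM copper sulfate, then grown 7 days at 30°C on medium lacking adenine and uracil. Input and output plasmid inserts were Illumina-sequenced. Nucleation score is the DiMSum log enrichment of output over input reads, centred on the mode score of non-aggregating sequences, excluding sequences with under 100 input reads. Random libraries had three technical output replicates.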

| Substance | amyloid nucleation score |
| --- | --- |
| LFFTGVHRKF | 4.28 ± 0.064 |
| STNECSLLMGDSCGHHRSHC | -0.171 ± 0.9 |
| ILLMFYRCSKDILLIRSTDF | 0.059 ± 0.27 |
| RYLSHHP | 0.609 ± 0.55 |
| FKVKIVKCLGMFLLTIASLL | 1.07 ± 0.39 |
| TLVSAVSCCLNAC | -0.269 ± 0.26 |
| YFCFFSRMFTVEF | 2.12 ± 0.64 |
| VYSMVFLMPCNRHDSFGRYS | 6.578 ± 0.056 |
| EVHRFRVKKEGGDQ | 0.869 ± 0.57 |
| HSAGVVDALRCYNFYV | -0.102 ± 0.39 |
| RYMLFVFHSLTGYYIRRFVY | -1.22 ± 1 |
| NFRWILSSAMDAIFPYVAFV | 1.52 ± 0.78 |
| RSSNLVCYFFSVWWY | 2.02 ± 0.44 |
| IDCIWGLCNWFHSLVMCVHS | inactive |
| SVDLVMEYSCDGNTLDFRSL | 0.157 ± 1.4 |
| ADANCFRGWSRHHRTITQLR | 0.296 ± 0.64 |
| SSDKLCAYFVREIWTQGAGW | 0.507 ± 0.54 |
| ASVYQRWPSFYRRLFVFNVI | 0.358 ± 0.55 |
| YRPWMRYLTLIGNYRHAGHS | 0.633 ± 0.62 |
| QKSLSVEPDAH | -0.557 ± 0.37 |
| RMEQSCWMTSECRRWKGVWL | 0.827 ± 0.44 |
| NAVINQ | 0.388 ± 0.73 |

| Substance | amyloid nucleation score |
| --- | --- |
| ISRWMSVDLCLPKLATGTVS | -0.083 ± 0.4 |
| WVSPLVYDWYLT | -0.929 ± 2.7 |
| CMNSMC | 0.066 ± 0.66 |
| YNDYACRYCFLVGTMD | 7.615 ± 0.052 |
| VVGSVLRGSYTCLG | -0.972 ± 0.82 |
| KSITWSKGDFARSTLLVNIC | 0.397 ± 0.43 |
| HEFNR | -0.936 ± 1.6 |
| NYYIRRTCMSTYYVRVLIKS | 0.522 ± 0.39 |
| KRALQDRMLLEP | -0.286 ± 1 |
| DIPIDIWSYPQHGRFS | -0.814 ± 0.79 |
| AADGGYCRCGNDRKCLYAFR | inactive |
| TSYYRGFYKYAWNG | 0.21 ± 0.39 |
| KASMMPSDSSCLI | 0.911 ± 0.34 |
| TLSSRSYC | 0.402 ± 0.33 |
| LVCFGFSNNCCELCCYYSNL | 0.765 ± 0.61 |
| RFQGGWSRF | 3.68 ± 0.11 |
| TGYLERRVGYYRVRFRCERS | 0.022 ± 0.6 |
| MPEILSVRSF | -0.943 ± 0.32 |
| YIVRQECSRIQYLTDM | 1.22 ± 0.73 |
| RLHMRRRPFVNTHVS | 0.54 ± 0.42 |
| DRFQNYFCILCFPFYANVCE | 2.71 ± 0.12 |
| MLVYYNDKSVFHRFVLLRN | 0.644 ± 0.85 |

| Substance | amyloid nucleation score |
| --- | --- |
| SHDFVVIISNCR | 5.57 ± 0.093 |
| TGQLDV | 1.75 ± 0.58 |
| IGSVDALKVVDVAMCVPT | 2.34 ± 0.54 |
| SEEYWVLDWIEVGLKGSLRM | -0.105 ± 0.55 |
| ISICDVYLWVHMRYSL | 0.584 ± 0.21 |
| REVSVVNLYRCFDGIRSKLT | 0.219 ± 0.23 |
| PISSGNCSTRLGSFSSWYSV | -0.485 ± 0.68 |
| FFVFSRAHCAQSSLNKKYL | 0.888 ± 0.3 |
| WDFDYSMCVLYMVTAIRLWR | -0.26 ± 0.54 |
| NCDKMVNMLPLRFSDIALSM | -0.566 ± 0.5 |
| HNGHPRTAWVVVQY | 0.298 ± 0.28 |
| GLWKGLRHSSSKWERPHIRQ | 1.1 ± 0.62 |
| GHRINAYVVVVHLGSSGGGW | 2.07 ± 0.29 |
| HYSFFE | -0.806 ± 0.8 |
| CLLSRLYMVSLFWS | 0.033 ± 0.43 |
| IISVMTIARGNPVCTHIKYG | 0.169 ± 0.29 |
| DGSGGPYIGILLWGLAKMSG | -0.488 ± 0.85 |
| TSMLSGSWSRPDPLTDSSGD | 0.517 ± 0.47 |
| CQVVLISWTGSHKGNLEHNA | 1.08 ± 0.3 |
| SMAFGCWSVGWYRGMMSVCQ | 1.16 ± 0.6 |
| SGTSLPNITLLDTFCTRCFV | -0.095 ± 0.22 |
| NMTPFGYIHFTL | 0.644 ± 1 |

| Substance | amyloid nucleation score |
| --- | --- |
| EFRKEG | 1.02 ± 0.52 |
| WNPIAIYEGDGMQDAFCADL | -0.033 ± 0.38 |
| FGMSCRVELDSDRARTTPWP | 0.181 ± 0.64 |
| LMVFAIRDLNFRHTILQPVP | -0.081 ± 0.42 |
| SYMSLAFIS | 0.004 ± 0.69 |
| MNIVIHIPNMRMAAKD | 7.17 ± 0.08 |
| NACIQVTGRCCIACVVEFWY | 1.32 ± 0.38 |
| MGRLRARRSLVLVA | inactive |
| FVFKIWQSD | 0.116 ± 0.58 |
| SIGWYTQGRYVGMCHRN | 0.251 ± 0.53 |
| YFAHGSWRLSCFLVYWLMRP | inactive |
| PFNMVWMRKYHLRSR | -0.378 ± 0.34 |
| VIMCYR | -0.309 ± 0.29 |
| FMASTRRFPLSLMRRAHVYL | -0.182 ± 1.3 |
| NMTSYSIYGELE | -0.341 ± 0.21 |
| PLLVYIFNFHCYHLVNAMTV | 2.2 ± 0.32 |
| GLIRSSVEVMLHGVHRWDPY | 0.037 ± 0.42 |
| KIEFIGDVRFA | 0.92 ± 0.67 |
| WATLALSR | 0.5 ± 0.4 |
| IFYLTSVFVFSLLKFMTCER | -1.17 ± 2.4 |
| QCMSMSYPFMPRTHQRTVLK | -0.179 ± 0.31 |
| VIVARQFISPSVYGDAMDHS | 1.15 ± 0.97 |
